Measured values taken from article PMC8011160.
Where “and” joins values, the source holds several entries; their conditions need not be identical. Equal entries are not always repeated.

Experiments:
Assay in all cases: ELISA; host protein coated on microtiter wells; recombinant protein varied from 0 to 2 μM; absorbance with BSA subtracted; apparent Kd from the half-maximal binding concentration (GraphPad Prism 6)
[1] = target: plasma fibronectin (purified from human plasma) (human)
[2] = target: plasminogen (purified from human plasma) (human)
[3] = target: elastin (purified from bovine neck ligament) (bovine) (UniProt P04985)
Sequence of elastin (purified from bovine neck ligament) (bovine) (P04985 27-747): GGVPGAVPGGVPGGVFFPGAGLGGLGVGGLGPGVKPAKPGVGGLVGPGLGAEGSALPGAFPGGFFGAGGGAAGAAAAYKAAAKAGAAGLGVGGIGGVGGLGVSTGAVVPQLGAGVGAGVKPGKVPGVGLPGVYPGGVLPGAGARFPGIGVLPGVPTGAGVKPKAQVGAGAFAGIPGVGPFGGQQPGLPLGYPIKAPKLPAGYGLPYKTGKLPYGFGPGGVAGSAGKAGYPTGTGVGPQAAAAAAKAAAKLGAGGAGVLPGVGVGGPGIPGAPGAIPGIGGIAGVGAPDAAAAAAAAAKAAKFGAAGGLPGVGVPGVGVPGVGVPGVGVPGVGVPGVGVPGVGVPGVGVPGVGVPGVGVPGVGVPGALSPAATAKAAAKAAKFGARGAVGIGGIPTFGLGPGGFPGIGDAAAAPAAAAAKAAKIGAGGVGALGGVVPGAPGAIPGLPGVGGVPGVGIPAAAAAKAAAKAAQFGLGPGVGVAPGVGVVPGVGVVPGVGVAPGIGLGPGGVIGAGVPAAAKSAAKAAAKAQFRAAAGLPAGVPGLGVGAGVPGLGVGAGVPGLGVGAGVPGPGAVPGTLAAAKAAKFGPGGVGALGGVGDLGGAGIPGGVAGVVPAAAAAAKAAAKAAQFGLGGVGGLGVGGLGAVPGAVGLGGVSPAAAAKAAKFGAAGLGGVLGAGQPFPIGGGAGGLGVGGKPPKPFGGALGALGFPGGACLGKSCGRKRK

[4] = target: laminin (purified from basement membrane of Engelbreth-Holm-Swarm mouse sarcoma) (mouse) (UniProt P19137)
[5] = target: fibrinogen (purified from human plasma) (human) (UniProt P02671)
Sequence of fibrinogen (purified from human plasma) (human) (P02671 other isoform, or with tags, fused parts or gaps, chain 1 of 3): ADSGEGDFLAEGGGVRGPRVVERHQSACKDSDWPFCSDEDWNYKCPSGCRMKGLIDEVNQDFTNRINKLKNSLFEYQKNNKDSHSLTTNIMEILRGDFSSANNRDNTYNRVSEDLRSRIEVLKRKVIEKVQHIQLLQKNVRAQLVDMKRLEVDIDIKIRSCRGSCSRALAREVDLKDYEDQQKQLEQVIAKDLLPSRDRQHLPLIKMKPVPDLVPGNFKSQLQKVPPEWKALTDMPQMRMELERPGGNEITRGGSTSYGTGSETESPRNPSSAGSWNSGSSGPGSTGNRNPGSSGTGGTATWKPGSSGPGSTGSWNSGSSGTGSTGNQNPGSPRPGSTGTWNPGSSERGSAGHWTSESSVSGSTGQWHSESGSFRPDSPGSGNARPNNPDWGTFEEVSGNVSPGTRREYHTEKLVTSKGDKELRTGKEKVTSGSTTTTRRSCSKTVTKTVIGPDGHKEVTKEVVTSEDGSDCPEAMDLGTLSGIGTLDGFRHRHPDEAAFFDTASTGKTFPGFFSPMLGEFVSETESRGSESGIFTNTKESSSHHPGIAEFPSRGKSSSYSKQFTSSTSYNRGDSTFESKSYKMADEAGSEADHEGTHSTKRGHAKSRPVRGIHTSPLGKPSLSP
Sequence of fibrinogen (purified from human plasma) (human) (P02675 31-491, chain 2 of 3, further chain): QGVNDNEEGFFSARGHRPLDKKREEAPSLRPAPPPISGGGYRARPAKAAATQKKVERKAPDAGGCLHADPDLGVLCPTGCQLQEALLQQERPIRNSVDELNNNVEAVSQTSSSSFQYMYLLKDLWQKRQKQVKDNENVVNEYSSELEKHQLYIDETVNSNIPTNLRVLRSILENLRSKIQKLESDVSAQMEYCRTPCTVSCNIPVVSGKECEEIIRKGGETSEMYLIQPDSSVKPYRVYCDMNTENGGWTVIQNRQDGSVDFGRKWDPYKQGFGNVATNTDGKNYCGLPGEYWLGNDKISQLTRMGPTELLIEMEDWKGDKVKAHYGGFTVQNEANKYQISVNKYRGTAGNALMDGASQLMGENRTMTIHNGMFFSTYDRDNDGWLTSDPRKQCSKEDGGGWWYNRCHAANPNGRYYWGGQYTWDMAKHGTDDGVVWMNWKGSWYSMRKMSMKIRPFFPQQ
Sequence of fibrinogen (purified from human plasma) (human) (P02679 other isoform, or with tags, fused parts or gaps, chain 3 of 3, further chain): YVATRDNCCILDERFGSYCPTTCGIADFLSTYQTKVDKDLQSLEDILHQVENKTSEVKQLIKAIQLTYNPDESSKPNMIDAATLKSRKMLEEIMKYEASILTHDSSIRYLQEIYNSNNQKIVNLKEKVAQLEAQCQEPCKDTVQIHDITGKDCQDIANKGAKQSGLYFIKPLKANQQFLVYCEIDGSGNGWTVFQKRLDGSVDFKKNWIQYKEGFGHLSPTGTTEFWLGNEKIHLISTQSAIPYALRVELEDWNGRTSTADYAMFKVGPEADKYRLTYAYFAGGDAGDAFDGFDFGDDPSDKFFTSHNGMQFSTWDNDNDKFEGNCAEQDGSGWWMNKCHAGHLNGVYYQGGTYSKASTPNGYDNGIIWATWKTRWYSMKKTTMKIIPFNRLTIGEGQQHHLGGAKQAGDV

[6] = target: collagen Type I (purified from rat tail) (rat) (UniProt P02454)
Sequence of collagen Type I (purified from rat tail) (rat) (P02454 152-1207, chain 1 of 2): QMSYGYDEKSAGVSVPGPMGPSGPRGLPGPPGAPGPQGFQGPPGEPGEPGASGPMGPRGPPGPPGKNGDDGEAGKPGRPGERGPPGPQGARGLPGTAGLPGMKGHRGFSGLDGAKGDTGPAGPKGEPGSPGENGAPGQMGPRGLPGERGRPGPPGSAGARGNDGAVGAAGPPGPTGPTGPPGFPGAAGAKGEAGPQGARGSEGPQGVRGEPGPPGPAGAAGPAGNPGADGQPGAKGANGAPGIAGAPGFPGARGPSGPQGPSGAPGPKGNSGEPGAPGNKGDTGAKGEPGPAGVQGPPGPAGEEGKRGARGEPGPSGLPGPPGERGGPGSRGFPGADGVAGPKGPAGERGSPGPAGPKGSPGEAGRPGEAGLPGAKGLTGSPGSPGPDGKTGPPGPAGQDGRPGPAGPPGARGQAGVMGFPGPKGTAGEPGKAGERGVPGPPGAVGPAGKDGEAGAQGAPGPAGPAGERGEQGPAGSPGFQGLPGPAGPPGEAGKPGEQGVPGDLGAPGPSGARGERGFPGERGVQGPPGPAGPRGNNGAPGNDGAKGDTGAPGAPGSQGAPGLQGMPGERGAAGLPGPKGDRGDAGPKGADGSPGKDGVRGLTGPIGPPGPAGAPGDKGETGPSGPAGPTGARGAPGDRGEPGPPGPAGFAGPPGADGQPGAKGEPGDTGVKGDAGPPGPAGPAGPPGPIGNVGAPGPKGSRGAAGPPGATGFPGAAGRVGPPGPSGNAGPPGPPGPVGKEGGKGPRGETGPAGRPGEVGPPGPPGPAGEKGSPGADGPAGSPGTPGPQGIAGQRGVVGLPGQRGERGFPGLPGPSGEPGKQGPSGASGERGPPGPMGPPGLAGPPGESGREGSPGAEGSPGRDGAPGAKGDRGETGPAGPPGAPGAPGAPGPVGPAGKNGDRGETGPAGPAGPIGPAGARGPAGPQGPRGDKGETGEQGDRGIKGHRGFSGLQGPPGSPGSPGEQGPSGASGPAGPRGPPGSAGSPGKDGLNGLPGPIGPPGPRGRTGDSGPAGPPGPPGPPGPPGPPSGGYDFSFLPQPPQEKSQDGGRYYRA
Sequence of collagen Type I (purified from rat tail) (rat) (P02466 86-1125, chain 2 of 2, further chain): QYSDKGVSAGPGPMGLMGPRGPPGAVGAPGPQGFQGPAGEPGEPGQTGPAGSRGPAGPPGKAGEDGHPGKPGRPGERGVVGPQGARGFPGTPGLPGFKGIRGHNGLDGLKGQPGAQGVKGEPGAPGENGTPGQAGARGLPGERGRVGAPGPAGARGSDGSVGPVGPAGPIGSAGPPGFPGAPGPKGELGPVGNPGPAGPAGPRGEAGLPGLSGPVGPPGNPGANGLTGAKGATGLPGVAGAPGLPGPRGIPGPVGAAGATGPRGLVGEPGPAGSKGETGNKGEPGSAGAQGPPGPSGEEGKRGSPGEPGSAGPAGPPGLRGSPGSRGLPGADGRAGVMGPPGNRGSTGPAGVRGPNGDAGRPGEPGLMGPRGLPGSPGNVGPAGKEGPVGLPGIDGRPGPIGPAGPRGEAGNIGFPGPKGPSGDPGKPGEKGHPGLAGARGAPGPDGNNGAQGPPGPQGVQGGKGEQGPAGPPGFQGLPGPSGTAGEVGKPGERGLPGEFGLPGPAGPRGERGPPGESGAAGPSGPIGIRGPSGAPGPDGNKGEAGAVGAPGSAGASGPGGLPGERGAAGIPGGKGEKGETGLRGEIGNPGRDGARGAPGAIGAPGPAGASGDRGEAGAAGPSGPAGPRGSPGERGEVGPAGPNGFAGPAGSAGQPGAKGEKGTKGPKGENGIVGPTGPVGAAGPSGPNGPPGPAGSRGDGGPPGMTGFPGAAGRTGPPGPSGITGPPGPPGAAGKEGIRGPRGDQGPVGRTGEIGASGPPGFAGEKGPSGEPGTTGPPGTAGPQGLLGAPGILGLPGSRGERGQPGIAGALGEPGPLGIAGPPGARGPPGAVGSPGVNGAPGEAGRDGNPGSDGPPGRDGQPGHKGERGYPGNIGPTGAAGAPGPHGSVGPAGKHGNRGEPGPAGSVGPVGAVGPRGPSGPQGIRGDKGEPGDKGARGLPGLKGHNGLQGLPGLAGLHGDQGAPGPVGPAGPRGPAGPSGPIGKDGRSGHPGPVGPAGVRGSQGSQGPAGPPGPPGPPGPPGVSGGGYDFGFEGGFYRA

[7] = target: collagen Type IV (purified from basement membrane of Engelbreth-Holm-Swarm mouse sarcoma) (mouse) (UniProt P02463)

Sequence of GroEL protein of Leptospira interrogans (recombinant, His-tagged) (P61438 whole entry): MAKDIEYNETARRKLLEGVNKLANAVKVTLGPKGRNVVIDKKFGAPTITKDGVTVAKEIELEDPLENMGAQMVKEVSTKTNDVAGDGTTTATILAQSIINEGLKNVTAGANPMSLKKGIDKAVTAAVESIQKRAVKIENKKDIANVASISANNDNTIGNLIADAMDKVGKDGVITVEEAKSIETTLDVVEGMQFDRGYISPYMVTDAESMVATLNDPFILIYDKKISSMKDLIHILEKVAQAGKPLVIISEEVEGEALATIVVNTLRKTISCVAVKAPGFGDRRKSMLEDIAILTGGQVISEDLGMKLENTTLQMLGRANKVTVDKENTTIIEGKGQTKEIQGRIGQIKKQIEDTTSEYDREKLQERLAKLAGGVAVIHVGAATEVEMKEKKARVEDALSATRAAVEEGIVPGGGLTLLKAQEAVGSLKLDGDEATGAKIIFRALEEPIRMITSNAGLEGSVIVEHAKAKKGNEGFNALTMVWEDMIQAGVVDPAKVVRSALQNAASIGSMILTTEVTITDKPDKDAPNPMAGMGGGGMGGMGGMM

Substance	Kd [1]	Kd [2]	Kd [3]	Kd [4]	Kd [5]	Kd [6]	Kd [7]
GroEL protein of Leptospira interrogans (recombinant, His-tagged) (from UniProt P61438 1-546) (natural protein)	34 nM and 10 nM	31 nM					
leptospiral protein 25 (Lp25) (natural protein)	5370 nM and 6370 nM	4430 nM	606 nM	1140 nM	606 nM	699 nM	2420 nM
truncated form of leptospiral immunoglobulin-like protein B (LigBC, amino acids 631-1156) (from UniProt Q72V39 631-1156) (domain or fragment)	15 nM and 6 nM	5 nM					
